Laboratory results taken from the RNAGym collection of RNA variant scans (doi:10.1073/pnas.2313332121).
Variants at the floor of the assay were thinned out.

B1: TPR 5TU (parent)
chain: GGAUCUUCUCGAUCUAACAAAAAAGACAAAUCUGCCACAAAGCUUGAGAGCAUCUUCGGAUGCAGAGGCGGCAGCCUUCGGUGGCGCGAUAGCGCCAACGUUCUCAACUAUGACACGCAAAACGCGUGCUCCGUUGAAUGGAGUUUAUCAUG

Variants of: B1
Test: polymerase ribozyme fitness, log enrichment relative to wild type (log ratio); higher = more active; in vitro selection for triplet polymerase activity
How it was run: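 After PCR construction and transcription, each subunit's mutant library from a heterodimeric triplet polymerase ribozyme was annealed with a biotinylated primer, the partner subunit and triplets. Incubation was frozen, at −7 °C, and extended constructs were gel-excised, bound to streptavidin beads and amplified by RT-PCR, in one selection round done in triplicate. Fitness is the logarithm of a genotype's enrichment divided by that of the wild type, from inverse-variance-weighted replicate averages of Illumina-sequenced inputs and outputs. The base of the logarithm is 2, and genotypes needed ≥10 input reads and ≥1 read per output.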

Point of comparison: GGAUCUUCUCGAUCUAACAAAAAUGACAAAUCUGCCACGAAGCUUGAGAGCAUCUUCGGAUGCAGAGGCGGCAGCCUUCGGAGGCGCGAUAGCGGCAACGUUCUCAACUAUGACACGCAAAACGCGUGCUCCGUAGAAUGGAGUUUAUCAUG [A24U A39G U82A C95G U135A], “polymerase ribozyme fitness (log ratio)” value -3.89. Against it:
- GGAUCUUCUCGAUCUAACAAAAAUGACAAAUCUGCCACGAAGCUUGAGAGUAUCUUAGGAUGCAGAGGCGGCAGCCUUCGGUGGUGCGAUAGCGCCAACGUUCUCAACUAUGACACGCAAAACGCGUGGUCCGUUGAAUGGAGUUUAUCAUG [A24U A39G C51U C57A C85U C129G] — lower, ≤ -4.2
- GGAUCUUCUCGAUCUAACAAAAAUGACAAAUCUGCCACAAAGCUUGAGAGCAUCUUCGGAUGCAGCGGCGGCGGCCUUGGGUGGCGAUAUAGCGCCAACGUUCUCAACUAUGACAAGAAAAACGCGUGCUCCGUUGAAUGGAGUUUAUCAUG [A24U A66C A73G C79G C87A G88U C116A C118A] — lower, ≤ -4.2
- GGAUCUUCUCGAUCUAACAAAAAGGACAAAUCUGCCACAAAGCUUGAGAGCAUCUUCGGAUGCAGAGGCGGCAGCCUUCGGUGGCGCGACAGCGCCAACGUUCUCAACUAUGACACGCAAAAGGCGUGCUCCGUUCAAUGGAGUUUGUCAUG [A24G U90C C123G G136C A147G] — lower, ≤ -4.2
- GGAUCUUCUCGAUCUAACAAAAAUGACAAAUCUGCCACAAAGCUUGUGAGCAUCUUCGGAUGCAGAGGCGGCAGCCUUCGGUGGCGCGAUAGCGCUAACGUUCUCAACUAUGACAAGCAAAACGCGUGCUCCAUUGAAUGGAGUUUAUGAUG [A24U A47U C96U C116A G133A C149G] — lower, ≤ -4.2
- GGAUCUUCUCGAUCUAACAAAAAUGACAAAUCUGCCACAGAGCUUGAGAGCAUCUUAGGAUGCAGAGGCGGCAGCCUUCGGUGGCGCGAUAGCGCAAAUGUUCUCAACUAUGACACGCAAAACGCGUGCUCCGAUGAAUGGAGUUUAUCAUG [A24U A40G C57A C96A C99U U134A] — lower, ≤ -4.2
- GGAUCUUCUCGAUCUAACAAAAAUGACAAAUCUGCCACUAAGCUUGAGAGCAUCUACGGAUGCAGAGGCGGCAGCCUUCGGUGGCGCGAUAGCACCAACGUUCUCAACUAUGACACGCAAAACGCGUGCUCCGUUGAAUGGAGUUUAUCAUG [A24U A39U U56A G94A] — higher, -3.21
- GGAUCUUCUCGAUCUAACAAAAAUGACAAAUCUGCCACAAAGCUUGCCAGCAUCUUCGGAUGCAGAGGCGGCAGCCUUCGGUGGGGCGAUGGCGCCAACGUUCUCAACUAUGACACGCAAAACGCGUGCUCCGUUGAAUGGAGUUUAUCAUG [A24U A47C G48C C85G A91G] — lower, ≤ -4.2
- GGAUCUUCUCGAUCUAACAAAAAUGACAACUCUGCCAUAAAGCUAGAGAGCAUCUUCGGAUGCAGAGGCGGCAGCCUUCGGUGGCGCGAUAUCGCCAACGUUCUCAACUAUGACACGCAAAACGCGUGCUCCGUUGAAUGGAGUUUAUCAUG [A24U A30C C38U U45A G92U] — lower, ≤ -4.2
- GGAUCUUCUCGAUCUAACAAAAAUGACAAAUCUGCCACAAAGCUUGAGAGCCUCUACGGAUGCAGAGGCGGCGGCCUUCGGUGGCGCGAUAGUGCCAACGUUCUCAACUAUGACACGCAAAACGCGUGCUCCGUUGAAUGGAGUUUAUCAUG [A24U A52C U56A A73G C93U] — higher, -3.52
- GGAUCUUCUCGAUCUAACAAAAAUGACAAAUCUGCCACAAAGCUUGAGAGCUUCUUCGGAUGCAGAGGCGGCAGCCUUCGGUGGCGCGAUAGCGUCAACGUUCUCAACUAUGACACGCAAAACGCGUGCUCCGUUGAAUGGAGUUUAUCAUG [A24U A52U C95U] — higher, -1.25
- GGAUCUUCUCGAUCUAACAAAAAGGACAAAUCUGCCACAAAGCUUGAGAGCAUCUACGGAUGCAGAGGCGGCAGCCUUCGGUGGCGCGAUAGCGCCAACGUUCUCAACUAUGACACGCAACACGCGUGCUCCCUUGAAUGGAGUUUAUCAUG [A24G U56A A121C G133C] — lower, ≤ -4.2
- GGAUCUUCUCGAUCUAACAAAAAUGACCAAUCUGCCACAAAGCUUGAGAGCAUCUUCGGAUGCAGAGGCGGCAGCAUUCGGAGGCGCGAUAGCGCCAAUGUUCUCAACUAUGACACGUAAAACGCGUGCUCCGUUGAAUGCAGUUUAUCAUG [A24U A28C C76A U82A C99U C118U G141C] — lower, ≤ -4.2
- GGAUCUUCUCGAUCUAACAAAAAUGACAAAUCUGCCACUAAGCUUGAGAGCAUCUUCGGAUGCAGAGGCGGCAGCCUUCGGUGGCGCGCUAGCGCCAACGUUCUCAACUAUGACACGCAAAACGCGUGCUCCGUUGAAUGGAGUUUAUCAUG [A24U A39U A89C] — lower, -4.16
- GGAUCUUCUCGAUCUAACAAAAAGGACAAAUCUGCCACAAAGCUUGAGAGCAUCAUUGGAUGCAGAGGCGGCUGCCUUCGGGGGCGCGAUAACGCCUACGUUCUCAACUAUGACACGCAAAACGCGUGCUCCGUUGAAUGCAGUUUAUCAUG [A24G U55A C57U A73U U82G G92A A97U G141C] — lower, ≤ -4.2
- GGAUCUUCUCGAUCUAACAAAAAUGACAAAUCUGCCACACAGCUUGUGAGCAUCUUCGGAUGCAGAGGUGGCAGCCUUCGGUGGCGCGAUAGUGCCAACGUUCUCAACUAUGACACGUAAAACGCGUGCUCCGUUGAAUGGAGUAUAUCAUG [A24U A40C A47U C69U C93U C118U U145A] — lower, -4.16
- GGAUCUUCUCGAUCUAACAAAAAUGACAAAUCUGCCACAAAGCUUGUGAACAUCUUCGUGUGCAGAGGCGGCAGCCUUCGGUGGCGUGAUAGCGCCAACGUUGUCAACAGUGACACGCAAAACGCGUGCUCCGUUGAAUGGAGUUUAUCAUG [A24U A47U G50A G59U A60G C87U C103G U109A A110G] — within 0.2 log units, -4.01
- GGAUCUUCUCGAUCUAACAAAAAUGACAACUCUGCCACAAAGCUUGAUAGCAUCUUCGGGUGCAGAGGCGGCAGCCUUCGGUGGCGCGAUAGCCCCAACGUUCUCAACGAUGUCACGCAAAACGCGUGCUCCGUUGAAUGGAGUUUAUCAUG [A24U A30C G48U A60G G94C U109G A113U] — lower, ≤ -4.2
- GGAUCUUCUCGAUCUAACAAAAAUGGCAAAUCUGCCACAAAGCUUGAGAGUAUCUUCGGAUGCUGCGGUGGCAGCCUUCGGUGGCGCGAUAGCGCCAACGUUCUCAAAUAUGACACGCAAAAAGCGUGCUCCGUUGAAUGGAGUUUAUCAUG [A24U A26G C51U A64U A66C C69U C108A C123A] — lower, ≤ -4.2
